Results reported in the domain aggregation screens of Martell et al. (2025).

Test: soluble fraction after stress (log2 fold change); higher = more stays soluble; pooled small domains, quantitative proteomics
Settings: stress: 75 degC
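Further: 20 min heating vs room temperature control held 20 min.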

Question: For “HMEKPTEITLSNRVSVQELAEKMYVSETDIIRTLFLDGRIININQVLDIDTAIRVGEQLGIKIKII”, which “soluble fraction (log2)” value is on record?
Answer: -2.14

Question: With “HMEKPTRNKLVEIIIQNKNVTTEQMANLLNISRRAVAKHIKKLQEEGIIRRIGPDFGGHWEIVK” as the sequence, how does the “soluble fraction (log2)” value read?
Answer: -0.294

Question: Which “soluble fraction (log2)” value does the source give for “HMEKPYTPPANLNEIQSYEELSKAVQYYNKVKDAATTDADRLKAQQSIDTLEDMRKAWDAASST” here?
Answer: 0.328

Question: With “HMEKSLSAQVYEKIKAGIISLKYPPGSVLKERELSESLGVSRTPVREAIQRLSQESWLVPGEGKRMQVRP” as the sequence, how does the “soluble fraction (log2)” value read?
Answer: -0.0542

Question: For “HMEKTLAERVNDILAEIKMTKQELAMQLNISRSAVSQYLNGKYSSNPEAIEARLRDFVSSYDRG”, which “soluble fraction (log2)” value is on record?
Answer: -0.292

Question: Which “soluble fraction (log2)” value does the source give for “HMEKYIVEAEEQGKRLDMYISSKDEELTRTSAQRLIEQGDILVNNKKVKVAYKVSEGDIIAVEKQ” here?
Answer: -0.0711

Question: Which “soluble fraction (log2)” value does the source give for “HMELDLPLEELGLSTRVLHSLKEEGIESVRALLALNLKDLKNIPGIGERSLEEIKEALEKKGFTLK” here?
Answer: -0.103

Question: Which “soluble fraction (log2)” value does the source give for “HMELEENTERVLNILIENDIISENDIAEKLEVKINGARKALYKLKEVGFVEYTKERDEEKKWWYIYFWKLN” here?
Answer: -0.132

Question: For “HMELEKIRPDLDGLEIMAILGISPSPIVGRAYQYLLDLRMDRGPLGPDAAKAELLNWWSLNQPK”, which “soluble fraction (log2)” value is on record?
Answer: -1.66

Question: With “HMELGRQDSAQLGRWAAGILAKNGKKITGRTMEFFLSRTGDDMENISSELEKLISYTLGREVITEEDIEAV” as the sequence, how does the “soluble fraction (log2)” value read?
Answer: -0.263

Question: Which “soluble fraction (log2)” value does the source give for “HMELGWYVRLRRRELGLSVTALAEKAGMSQSYLSQIETGDRGNPSPESLRSLAEALEVSPRELESLV” here?
Answer: -2.82

Question: With “HMELMKPPGYWQSLENAIYESKKVIKEHGFDTLPSSNKLRELDYHGLSRAISVHHSGFPNFREIMNQELGI” as the sequence, how does the “soluble fraction (log2)” value read?
Answer: -0.00652

Question: For “HMELNDEELIKGIQELLTKIGYDPGEINGVLGIKTSSAISAFQQSRNKAITGEADLDLLVQLQIELRKITT”, which “soluble fraction (log2)” value is on record?
Answer: -1.86

Question: For “HMELNGVSETAKSVYSIILNNSSTVDDIVIKTKLPAAKVMQALTELELNDAVERKSGGVYALP”, which “soluble fraction (log2)” value is on record?
Answer: 0.0577

Question: With “HMELPADLATVLSVDDIRAIALAEVPGSTITGVELEREEGVLVYKVKFNDGSYKLYDANTGELV” as the sequence, how does the “soluble fraction (log2)” value read?
Answer: 0.105

Question: For “HMELPPLEPIDRILVVQQPINIREQPGVLAKKIGRVSSGETLTILAKVSGQDWYFVETDNGGRGYVFKRV”, which “soluble fraction (log2)” value is on record?
Answer: -1.15

Question: For “HMELQYSQEIEEAQKILENLGLYRGEIDGINGINTKSAIREFQRKSGLVVDGILGPNTTNALSKGSDAYIT”, which “soluble fraction (log2)” value is on record?
Answer: 0.0481

Question: With “HMELVQIIGNNIRDLMTTRSVTITDLANYLNVSRQTLQNYLRGSNIIDSVKLVAVSDFFDVPVESLLQSK” as the sequence, how does the “soluble fraction (log2)” value read?
Answer: -1.45

Question: With “HMEMGNKIKELRTKLGITQEELSKTLNVSSQAVSKWENGGLPDLELIPEIAKYFNVTTDYLFDIK” as the sequence, how does the “soluble fraction (log2)” value read?
Answer: -0.187

Question: With “HMEMKVIPFNQMTRDQFDQLDRFLGRLAAAQAMGSLRLTKAQQNYFLNQVKQLDLYRKRILN” as the sequence, how does the “soluble fraction (log2)” value read?
Answer: -1.96

Question: With “HMEMTSREIIKRLEEDGWYHVKTTGDHYQMKHPTKPGKVTIVHPAKDLSIGTLRSIEKQSGVRL” as the sequence, how does the “soluble fraction (log2)” value read?
Answer: -0.18

Question: With “HMEMVSMPGLTGSTLEFATKTLTENELKYEVVYIVDASAESGLIIRTYPTEGEMVSKKTSTIYLYIKE” as the sequence, how does the “soluble fraction (log2)” value read?
Answer: -3.4

Question: For “HMENDGQFLRAEREKYGLTLTDIYEHTHIPIKKLKAYEMWEEEMPPRTRALLELYFDQVAFEYDS”, which “soluble fraction (log2)” value is on record?
Answer: -0.862

Question: For “HMENDPYEILGIARSASDDEIKAKYRALTRENHPDILMAKGVPQEFIDLANEKMAVINAAYDKIEKER”, which “soluble fraction (log2)” value is on record?
Answer: 0.407

Question: For “HMENEDMTGDIRVIDYIRNVAEYIQTTKGQASASQMLDRFLFPPELQYTPLDKLSGGEQRRLYLLKVLMEA”, which “soluble fraction (log2)” value is on record?
Answer: 0.0433

Question: For “HMENEFEAYSDGSSIQLNDPSKATYVVFDRQGRLLHLFQNHSLSSLSIERKNQILIITRETADGVSVKKIV”, which “soluble fraction (log2)” value is on record?
Answer: -0.53

Question: For “HMENEIPVPELVGMSEADAAAKLASLGLERDTQREATADEESVGKVLRQEPTPGEYVDEGHKVTIWVGE”, which “soluble fraction (log2)” value is on record?
Answer: 0.184

Question: Which “soluble fraction (log2)” value does the source give for “HMENFSTLFSRLKEERGLSNKQISSFTGAPIKEVKKWESGMGIPTEKRIVAALEGILGSEISKAI” here?
Answer: -0.125

Question: With “HMENHILIIDDDLMLLKTAEEILSDQYNVSVAKSGIQALNLLNKNIIPDLILLDIDMPQMDGYETL” as the sequence, how does the “soluble fraction (log2)” value read?
Answer: -0.0633

Question: Which “soluble fraction (log2)” value does the source give for “HMENIIFDIGFHKGEDTLFYLLKGYRVIAVDADPDLINEWQNIFKKYIENGKLLLLNYVISDT” here?
Answer: -1.29

Question: For “HMENISVESKMKLLLKSLKTRDFISLPELVLKGESKLAISVILVAALELNRKGYIEVVQAEQFGEIYFKNT”, which “soluble fraction (log2)” value is on record?
Answer: -0.173

Question: For “HMENKVLVITEEEKGKRLDVYLAAALEVSRSYAQQLIQGEDVVVNDKQVKANYRLSEGDVVQVQLD”, which “soluble fraction (log2)” value is on record?
Answer: 1.01

Question: With “HMENLIEELTAKNKEYIHSVTKQLILVGKSDEEVKEILNDILPQIIEGQKSGIIARKLLGAPTEFVSQYQP” as the sequence, how does the “soluble fraction (log2)” value read?
Answer: -0.269

Question: With “HMENLQLQQLVKGLPEKMQEIVILRFSQELTMREIADIVNLPMRTVQSQLRLALKILKKEMG” as the sequence, how does the “soluble fraction (log2)” value read?
Answer: -0.682

Question: Which “soluble fraction (log2)” value does the source give for “HMENLSFNINSEEEGQRIDKYLSVMIEGKSRSFVQGLIEEKKVKANSKVIKSNYKLKKGDFIEVEVPEPV” here?
Answer: 0.289

Question: With “HMENLSGNDIKYLRKKYNLTQKELADALGLQKFGDRTIRRWEAEETHPSKLEQSSIQSFFNSLK” as the sequence, how does the “soluble fraction (log2)” value read?
Answer: -0.0716

Question: With “HMENLTLVIGNKLKNIRNSRNLSLDDVAELTGVSKAMLGQIERGKSNPTVSTLWKISTGLRVSFSSFIDE” as the sequence, how does the “soluble fraction (log2)” value read?
Answer: -3.44

Question: With “HMENLVPVVVATTNIEPRTQITDAMVKVEQIPALGRNESMLEDPALVVGGYATGKIYAGQSFIQPMVSK” as the sequence, how does the “soluble fraction (log2)” value read?
Answer: 0.351
